Results published in patent US20120058100A1, “MODULATION OF DRUG RELEASE RATE FROM ELECTROSPUN FIBERS” (priority 2006, published 2012).

Assay: Release of FITC-BSA from emulsion-electrospun PU, PLA and co-spun fibers in PBS
Format: physicochemical
Procedure: Polymers were dissolved in organic solvent and emulsified with a H2O/Poly(vinyl alcohol) mixture with the molecule to be released dispersed in the aqueous phase. Polyurethane (PU) was dissolved at 6 wt % in a mixture of chloroform and tetrahydrofuran. PLA was dissolved at 2 wt % in chloroform. Drugs were loaded into the PVA/Water mixture with aqueous volume fractions ranging from 10-20 vol %. Emulsions were loaded into plastic syringe fitted with a blunt tip 18-gauge needle and placed into a syringe pump.
Circular discs were punched out from the aluminum foil and polymer fibers removed from Al-backing. Samples placed in centrifuge tubes individual glass vials with PBS. Samples degraded in at room temperature (20° C.) on a rotisserie. The buffer was sampled at given intervals. Depending on release molecule, different spectrophotometric techniques were used to measure release profiles.
The concentration was determined fluorometrically by measuring […] at λ=495 nm. Samples were placed in 10 ml of PBS and 200 μl of buffer was used to run the assay and not replaced (total amount withdrawn from tube was less than 40% of total volume). Average concentration plotted over 360 hour time course (n=3).

For “FITC-BSA: fluorescein isothiocyanate conjugated albumin, a model protein”, the “duration over which release can be achieved” value (PU and PLA fibers) was at least 15 days, the “release from meshes of co-spun PLA and PU fibers relative to pure PLA or PU meshes” value (co-spun PLA and PU fibers) was “intermediate manner” and the “release rate relative to doxycycline” value (electrospun fibers) was “much slower release rates”.
